How the values were obtained:
[1] = target: Anti-CD28 Fab (SEQ ID NOs: 202, 203); test: phage binding ELISA on captured Fab;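 further: clonal phage supernatants added briefly to wells pre-incubated with CD28 antigen or with blocking buffer only, then washed, bound phage read by ELISA using HRP-coupled anti-M13 antibody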
Experimental: (§1) Clonal phage were harvested as crude supernatants and screened via standard ELISAs. […] Prior to the addition of clonal phage, wells were incubated with blocking buffer and CD28 antigen or blocking buffer alone. Without washing or aspirating, clonal phage supernatants were then added to the wells and incubated for a short time. Wells were then washed followed by detection of bound phage using a horse radish conjugated anti-M13 antibody.

[2] = target: Anti-CD28 Fab (SEQ ID NOs: 202, 203); test: phage binding ELISA on captured Fab, competitor CD28 antigen;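 further: clonal phage supernatant binding in wells preincubated with CD28 antigen in blocking buffer, detected by HRP-conjugated anti-M13 antibody ELISA, compared with blocking buffer alone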
Experimental: as §1

Sequence of Anti-CD28 Fab (SEQ ID NOs: 202, 203) (VH, as listed by the source, chain 1 of 2): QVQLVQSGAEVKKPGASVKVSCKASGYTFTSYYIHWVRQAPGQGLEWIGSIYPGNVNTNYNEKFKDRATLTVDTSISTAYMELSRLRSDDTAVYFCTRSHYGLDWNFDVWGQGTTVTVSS
Sequence of Anti-CD28 Fab (SEQ ID NOs: 202, 203) (VL, as listed by the source, chain 2 of 2): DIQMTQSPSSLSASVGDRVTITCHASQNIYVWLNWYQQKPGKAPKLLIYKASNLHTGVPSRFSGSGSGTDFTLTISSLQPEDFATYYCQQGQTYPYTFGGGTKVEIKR

Binder: YCAGHSLQYLGKCY [Phage-813]
- Anti-CD28 Fab (SEQ ID NOs: 202, 203) signal [1]: 0.86
- Anti-CD28 Fab signal in the presence of CD28 [2]: 0.06

Binder: YCAGHLDVYMSKCL [Phage-781]
- Anti-CD28 Fab (SEQ ID NOs: 202, 203) signal [1]: 0.96
- Anti-CD28 Fab signal in the presence of CD28 [2]: 0.09

Binder: YCDGHSMTYMAKCI [Phage-815]
- Anti-CD28 Fab (SEQ ID NOs: 202, 203) signal [1]: 0.84
- Anti-CD28 Fab signal in the presence of CD28 [2]: 0.06

Binder: YCAGHTPEYLDKCL [Phage-784]
- Anti-CD28 Fab (SEQ ID NOs: 202, 203) signal [1]: 0.95
- Anti-CD28 Fab signal in the presence of CD28 [2]: 0.06

Binder: YCVGHSPEYIWKCL [Phage-796]
- Anti-CD28 Fab (SEQ ID NOs: 202, 203) signal [1]: 0.92
- Anti-CD28 Fab signal in the presence of CD28 [2]: 0.06

Binder: YCQGHFPQYMAKCL [Phage-777]
- Anti-CD28 Fab (SEQ ID NOs: 202, 203) signal [1]: 0.97
- Anti-CD28 Fab signal in the presence of CD28 [2]: 0.07

Binder: YCDGHLPEYMLKCL [Phage-780]
- Anti-CD28 Fab (SEQ ID NOs: 202, 203) signal [1]: 0.96
- Anti-CD28 Fab signal in the presence of CD28 [2]: 0.09

Binder: YCDGHLPEYMEKCL [Phage-880]
- Anti-CD28 Fab (SEQ ID NOs: 202, 203) signal [1]: 0.43
- Anti-CD28 Fab signal in the presence of CD28 [2]: 0.07

Binder: YCAGHSAQYMWKCL [Phage-793]
- Anti-CD28 Fab (SEQ ID NOs: 202, 203) signal [1]: 0.92
- Anti-CD28 Fab signal in the presence of CD28 [2]: 0.07

Binder: YCAGHASEYLQKCL [Phage-881]
- Anti-CD28 Fab (SEQ ID NOs: 202, 203) signal [1]: 0.43
- Anti-CD28 Fab signal in the presence of CD28 [2]: 0.06

Binder: YCDGHNPVYLAKCL [Phage-830]
- Anti-CD28 Fab (SEQ ID NOs: 202, 203) signal [1]: 0.74
- Anti-CD28 Fab signal in the presence of CD28 [2]: 0.08

Binder: YCDGHAGIYVLKCL [Phage-829]
- Anti-CD28 Fab (SEQ ID NOs: 202, 203) signal [1]: 0.75
- Anti-CD28 Fab signal in the presence of CD28 [2]: 0.08

Binder: YCAGHAEIYMQKCL [Phage-789]
- Anti-CD28 Fab (SEQ ID NOs: 202, 203) signal [1]: 0.93
- Anti-CD28 Fab signal in the presence of CD28 [2]: 0.05

Binder: YCDGHTGVYKWKCI [Phage-827]
- Anti-CD28 Fab (SEQ ID NOs: 202, 203) signal [1]: 0.76
- Anti-CD28 Fab signal in the presence of CD28 [2]: 0.06

Binder: YCDGHEERYMAKCL [Phage-786]
- Anti-CD28 Fab (SEQ ID NOs: 202, 203) signal [1]: 0.94
- Anti-CD28 Fab signal in the presence of CD28 [2]: 0.06

Binder: YCDGHAPEFIRKCL [Phage-754]
- Anti-CD28 Fab (SEQ ID NOs: 202, 203) signal [1]: 1.05
- Anti-CD28 Fab signal in the presence of CD28 [2]: 0.07

Binder: YCEGHAHEYMEKCV [Phage-790]
- Anti-CD28 Fab (SEQ ID NOs: 202, 203) signal [1]: 0.93
- Anti-CD28 Fab signal in the presence of CD28 [2]: 0.07

Binder: YCDGHDPQYIRKCI [Phage-817]
- Anti-CD28 Fab (SEQ ID NOs: 202, 203) signal [1]: 0.83
- Anti-CD28 Fab signal in the presence of CD28 [2]: 0.06

Binder: YCSGHVPEYMEKCL [Phage-787]
- Anti-CD28 Fab (SEQ ID NOs: 202, 203) signal [1]: 0.94
- Anti-CD28 Fab signal in the presence of CD28 [2]: 0.06

Binder: YCAGHAAEYMWKCL [Phage-776]
- Anti-CD28 Fab (SEQ ID NOs: 202, 203) signal [1]: 0.97
- Anti-CD28 Fab signal in the presence of CD28 [2]: 0.06

Binder: YCEGHLPSYLAKCL [Phage-753]
- Anti-CD28 Fab (SEQ ID NOs: 202, 203) signal [1]: 1.05
- Anti-CD28 Fab signal in the presence of CD28 [2]: 0.06

Binder: YCDGHSKEYMSKCL [Phage-779]
- Anti-CD28 Fab (SEQ ID NOs: 202, 203) signal [1]: 0.96
- Anti-CD28 Fab signal in the presence of CD28 [2]: 0.07

Binder: YCDGHSGEYMSKCL [Phage-819]
- Anti-CD28 Fab (SEQ ID NOs: 202, 203) signal [1]: 0.82
- Anti-CD28 Fab signal in the presence of CD28 [2]: 0.06

Binder: YCDGHIKEYMSKCL [Phage-799]
- Anti-CD28 Fab (SEQ ID NOs: 202, 203) signal [1]: 0.91
- Anti-CD28 Fab signal in the presence of CD28 [2]: 0.08

Binder: YCEGHSSEYMVKCL [Phage-826]
- Anti-CD28 Fab (SEQ ID NOs: 202, 203) signal [1]: 0.77
- Anti-CD28 Fab signal in the presence of CD28 [2]: 0.06

Binder: YCDGHSAEYLGKCL [Phage-795]
- Anti-CD28 Fab (SEQ ID NOs: 202, 203) signal [1]: 0.92
- Anti-CD28 Fab signal in the presence of CD28 [2]: 0.07

Binder: YCAGHIGEYMDKCL [Phage-828]
- Anti-CD28 Fab (SEQ ID NOs: 202, 203) signal [1]: 0.75
- Anti-CD28 Fab signal in the presence of CD28 [2]: 0.58

Binder: YCSGHSWAYIGKCL [Phage-775]
- Anti-CD28 Fab (SEQ ID NOs: 202, 203) signal [1]: 0.98
- Anti-CD28 Fab signal in the presence of CD28 [2]: 0.07

Binder: YCDGHKWEYLQKCL [Phage-816]
- Anti-CD28 Fab (SEQ ID NOs: 202, 203) signal [1]: 0.84
- Anti-CD28 Fab signal in the presence of CD28 [2]: 0.06

Binder: YCDGHDARYMTKCL [Phage-756]
- Anti-CD28 Fab (SEQ ID NOs: 202, 203) signal [1]: 1.04
- Anti-CD28 Fab signal in the presence of CD28 [2]: 0.09

Binder: YCAGHLEMYMSKCL [Phage-798]
- Anti-CD28 Fab (SEQ ID NOs: 202, 203) signal [1]: 0.91
- Anti-CD28 Fab signal in the presence of CD28 [2]: 0.07

Binder: YCEGHSSAYMRKCL [Phage-758]
- Anti-CD28 Fab (SEQ ID NOs: 202, 203) signal [1]: 1.04
- Anti-CD28 Fab signal in the presence of CD28 [2]: 0.06

Binder: YCEGHDIRYMMKCL [Phage-785]
- Anti-CD28 Fab (SEQ ID NOs: 202, 203) signal [1]: 0.95
- Anti-CD28 Fab signal in the presence of CD28 [2]: 0.08

Binder: YCDGHSFEYMAKCL [Phage-794]
- Anti-CD28 Fab (SEQ ID NOs: 202, 203) signal [1]: 0.92
- Anti-CD28 Fab signal in the presence of CD28 [2]: 0.06

Binder: YCDGHSMEYMAKCL [Phage-821]
- Anti-CD28 Fab (SEQ ID NOs: 202, 203) signal [1]: 0.8
- Anti-CD28 Fab signal in the presence of CD28 [2]: 0.07

Binder: YCDGHSPQYLWKCL [Phage-822]
- Anti-CD28 Fab (SEQ ID NOs: 202, 203) signal [1]: 0.8
- Anti-CD28 Fab signal in the presence of CD28 [2]: 0.05

Binder: YCDGHTGMYISKCL [Phage-774]
- Anti-CD28 Fab (SEQ ID NOs: 202, 203) signal [1]: 0.98
- Anti-CD28 Fab signal in the presence of CD28 [2]: 0.06

Binder: YCEGHTQAYLAKCL [Phage-792]
- Anti-CD28 Fab (SEQ ID NOs: 202, 203) signal [1]: 0.93
- Anti-CD28 Fab signal in the presence of CD28 [2]: 0.1

Binder: YCEGHAPQYMSKCL [Phage-755]
- Anti-CD28 Fab (SEQ ID NOs: 202, 203) signal [1]: 1.04
- Anti-CD28 Fab signal in the presence of CD28 [2]: 0.08

Binder: YCEGHAREYMDKCL [Phage-820]
- Anti-CD28 Fab (SEQ ID NOs: 202, 203) signal [1]: 0.8
- Anti-CD28 Fab signal in the presence of CD28 [2]: 0.07

Binder: YCDGHIPQYVEKCL [Phage-788]
- Anti-CD28 Fab (SEQ ID NOs: 202, 203) signal [1]: 0.94
- Anti-CD28 Fab signal in the presence of CD28 [2]: 0.08

Binder: YCEGHVPEYLVKCL [Phage-778]
- Anti-CD28 Fab (SEQ ID NOs: 202, 203) signal [1]: 0.96
- Anti-CD28 Fab signal in the presence of CD28 [2]: 0.06

Binder: YCEGHSAIYIAKCM [Phage-772]
- Anti-CD28 Fab (SEQ ID NOs: 202, 203) signal [1]: 0.98
- Anti-CD28 Fab signal in the presence of CD28 [2]: 0.11

Binder: YCEGHLPMYMQKCM [Phage-818]
- Anti-CD28 Fab (SEQ ID NOs: 202, 203) signal [1]: 0.82
- Anti-CD28 Fab signal in the presence of CD28 [2]: 0.07

Binder: YCFGHFPEYMAKCL [Phage-773]
- Anti-CD28 Fab (SEQ ID NOs: 202, 203) signal [1]: 0.98
- Anti-CD28 Fab signal in the presence of CD28 [2]: 0.07

Binder: YCDGHHAEYMWKCL [Phage-791]
- Anti-CD28 Fab (SEQ ID NOs: 202, 203) signal [1]: 0.93
- Anti-CD28 Fab signal in the presence of CD28 [2]: 0.06

Binder: YCAGHAAIYMAKCL [Phage-814]
- Anti-CD28 Fab (SEQ ID NOs: 202, 203) signal [1]: 0.85
- Anti-CD28 Fab signal in the presence of CD28 [2]: 0.07

Binder: YCAGHSAEYIQKCL [Phage-823]
- Anti-CD28 Fab (SEQ ID NOs: 202, 203) signal [1]: 0.8
- Anti-CD28 Fab signal in the presence of CD28 [2]: 0.08

Binder: YCQGHSVQYMAKCL [Phage-825]
- Anti-CD28 Fab (SEQ ID NOs: 202, 203) signal [1]: 0.77
- Anti-CD28 Fab signal in the presence of CD28 [2]: 0.06

Binder: YCEGHSVEYILKCL [Phage-757]
- Anti-CD28 Fab (SEQ ID NOs: 202, 203) signal [1]: 1.04
- Anti-CD28 Fab signal in the presence of CD28 [2]: 0.06

Binder: YCAGHTQEYMLKCL [Phage-824]
- Anti-CD28 Fab (SEQ ID NOs: 202, 203) signal [1]: 0.78
- Anti-CD28 Fab signal in the presence of CD28 [2]: 0.06

Binder: YCDGHELMYMEKCL [Phage-797]
- Anti-CD28 Fab (SEQ ID NOs: 202, 203) signal [1]: 0.92
- Anti-CD28 Fab signal in the presence of CD28 [2]: 0.06

Source: patent publication US20260274955A1 (JANUX THERAPEUTICS, published 2026)
